Laboratory results reported in paper PMC4323281 (Nature, 2014).

Molecular target: the molecule itself
Assay: AUC

B1: Archaeoglobus fulgidus alanyl-tRNA synthetase (AlaRS), wild-type, full-length (enzyme, UniProt O28029 1-906, looked up)
chain: MTLDEEYLDITFLTENGFVRKRCPKCGKHFWTADPEREICGDPPCESYSFIGNPVFKKPFELDEMREYYLNFFERRGHGRIERYPVVARWRTDIYLTIASIADFQPFVTSGVAPPPANPLTISQPCIRLDDLDSVGRTGRHLTLFEMMAHHAFNYPGKEIYWKNETVAYCTELLNELGVKKEDIVYKEEPWAGGGNAGPCLEAIVGGLEVATLVFMNLEEHPEGDIEIKGARYRKMDNYIVDTGYGLERFVWASKGTPTVYDAIFPEVVDTIIDNSNVSFNREDERVRRIVAESSKLAGIMGELRGERLNQLRKSVADTVGVSVEELEGIVVPLEKVYSLADHTRCILFMLGDGLVPSNAGAGYLARLMIRRSLRLAEELELGLDLYDLVEMHKKILGFEFDVPLSTVQEILELEKERYRTTVSKGTRLVERLVERKKKLEKDDLIELYDSHGIPVELAVGIAAEKGAEVEMPKDIYAELAKRHSKAEKVQEKKITLQNEYPATEKLYYDDPTLLEFEAEVIGVEGDFVILNRSAFYPESGGQDNDVGYLIANGGKFEVVDVLEADGVVLHVVKGAKPEVGTKVKGVIDSDVRWRHMRHHSATHVLLYSLQKVLGNHVWQAGARKEFSKARLDVTHFRRPSEEEIKEIEMLANREILANKPIKWEWMDRIEAERKFGFRLYQGGVPPGRKIRVVQVGDDVQACGGTHCRSTGEIGMLKILKVESIQDGVIRFEFAAGEAAIEAVEEMERLLREASSILRVEPAKLPKTVERFFEEWKDQRKEIERLKSVIADLWADILMERAEEFDSMKVVAEVVDADMQALQKLAERLAEKGAVGCLMAKGEGKVFVVTFSGQKYDARELLREIGRVAKGSGGGRKDVAQGAVQQLLDREEMLDVIFRFLSEHEG
  stoichiometry N: 2
